# Article PMC10675840, “Structure-function analysis of ceTIR-1/hSARM1 explains the lack of Wallerian axonal degeneration in C. elegans” (Cell reports, 2023)
# B1: ceTIR-1^TIR (residues 703-872) [C. elegans] / itself (parent)
# chain: MLSKQIDVFISYRRSTGNQLASLIKVLLQLRGYRVFIDVDKLYAGKFDSSLLKNIQAAKHFILVLTPNSLDRLLNDDNCEDWVHKELKCAFEHQKNIIPIFDTAFEFPTKEDQIPNDIRMITKYNGVKWVHDYQDACMAKVVRFITGELNRTTPTTKEMPSISRKTTQQR
# Variants of: B1
# Assay: gel filtration (size exclusion chromatography)
# Conditions: with itself
row,elution volume [mL],Variant
1,17.2,MLSKQIDVFISYRRSTGNQLASLIKVHLQLRGYRVFIDVDKLYAGKFDSSLLKNIQAAKHFILVLTPNSLDRLLNDDNCEDWVHKELKCAFEHQKNIIPIFDTAFEFPTKEDQIPNDIRMITKYNGVKWVHDYQDACMAKVVRFITGELNRTTPTTKEMPSISRKTTQQR [chain 1 L27H]
